Measurements from publication PMC9746966, “Structural basis for matriglycan synthesis by the LARGE1 dual glycosyltransferase” (PLOS ONE, 2022).

Target: the molecule itself
Assay: mass photometry; Refeyn One MP; LARGE1 samples diluted in TBS to approximately 30 nM (2.5 ug/ml), room temperature, 60 second recordings; monomer to dimer

B1: LARGE1^ecto (soluble secreted ectodomain of human LARGE1 with its coiled-coil domain, residues 29-756) (domain or fragment, UniProt O95461 29-756, looked up)
chain: LFSGSFEDGKPVSLSPLESQAHSPRYTASSQRERESLEVRMREVEEENRALRRQLSLAQGRAPSHRRGNHSKTYSMEEGTGDSENLRAGIVAGNSSECGQQPVVEKCETIHVAIVCAGYNASRDVVTLVKSVLFHRRNPLHFHLIADSIAEQILATLFQTWMVPAVRVDFYNADELKSEVSWIPNKHYSGIYGLMKLVLTKTLPANLERVIVLDTDITFATDIAELWAVFHKFKGQQVLGLVENQSDWYLGNLWKNHRPWPALGRGYNTGVILLLLDKLRKMKWEQMWRLTAERELMGMLSTSLADQDIFNAVIKQNPFLVYQLPCFWNVQLSDHTRSEQCYRDVSDLKVIHWNSPKKLRVKNKHVEFFRNLYLTFLEYDGNLLRRELFGCPSEADVNSENLQKQLSELDEDDLCYEFRRERFTVHRTHLYFLHYEYEPAADSTDVTLVAQLSMDRLQMLEAICKHWEGPISLALYLSDAEAQQFLRYAQGSEVLMSRHNVGYHIVYKEGQFYPVNLLRNVAMKHISTPYMFLSDIDFLPMYGLYEYLRKSVIQLDLANTKKAMIVPAFETLRYRLSFPKSKAELLSMLDMGTLFTFRYHVWTKGHAPTNFAKWRTATTPYRVEWEADFEPYVVVRRDCPEYDRRFVGFGWNKVAHIMELDVQEYEFIVLPNAYMIHMPHAPSFDITKFRSNKQYRICLKTLKEEFQQDMSRRYGFAALKYLTAENNS
notes: Cloned into a modified pHLsec plasmid (BglII/NotI); also called Like-acetylglucosaminyltransferase 1; LARGE1-His WT
Question: With B1 as the protein, how does the “stoichiometry N” value read?
Answer: 2

B2: LARGE1^ΔCC (soluble secreted ectodomain of human LARGE1 without its coiled-coil domain, residues 92-756) (domain or fragment, UniProt O95461 92-756, looked up)
chain: SHRRGNHSKTYSMEEGTGDSENLRAGIVAGNSSECGQQPVVEKCETIHVAIVCAGYNASRDVVTLVKSVLFHRRNPLHFHLIADSIAEQILATLFQTWMVPAVRVDFYNADELKSEVSWIPNKHYSGIYGLMKLVLTKTLPANLERVIVLDTDITFATDIAELWAVFHKFKGQQVLGLVENQSDWYLGNLWKNHRPWPALGRGYNTGVILLLLDKLRKMKWEQMWRLTAERELMGMLSTSLADQDIFNAVIKQNPFLVYQLPCFWNVQLSDHTRSEQCYRDVSDLKVIHWNSPKKLRVKNKHVEFFRNLYLTFLEYDGNLLRRELFGCPSEADVNSENLQKQLSELDEDDLCYEFRRERFTVHRTHLYFLHYEYEPAADSTDVTLVAQLSMDRLQMLEAICKHWEGPISLALYLSDAEAQQFLRYAQGSEVLMSRHNVGYHIVYKEGQFYPVNLLRNVAMKHISTPYMFLSDIDFLPMYGLYEYLRKSVIQLDLANTKKAMIVPAFETLRYRLSFPKSKAELLSMLDMGTLFTFRYHVWTKGHAPTNFAKWRTATTPYRVEWEADFEPYVVVRRDCPEYDRRFVGFGWNKVAHIMELDVQEYEFIVLPNAYMIHMPHAPSFDITKFRSNKQYRICLKTLKEEFQQDMSRRYGFAALKYLTAENNS
notes: residues 134 to 752 are modelled in the crystal structure; Cloned into a modified pHLsec plasmid; also called LARGE1 without CC; LARGE1- CC
Question: With B2 as the protein, how does the “stoichiometry N” value read?
Answer: 2
